The target in assay [1] is T1, human NGF (Homo sapiens, UniProt P01138). In words: BIAcore affinity determination assay (kon, koff, KD of purified Fabs). It counts as binding. The settings on record: higher affinity than 911. Here is the method: Affinities of anti-NGF Fabs and monoclonal antibodies were determined using the BIAcore300™ surface plasmon resonance (SPR) system (BIAcore, INC, Piscaway N.J.). CM5 chips were activated with N-ethyl-N′-(3-dimethylaminopropyl)-carbodimide hydrochloride (EDC) and N-hydroxysuccinimide (NHS) according to the supplier's instructions. Human NGF was diluted into 10 mM sodium acetate pH 4.0 and injected over the activated chip at a concentration of 0.005 mg/mL. Using variable flow time across the individual chip channels, two ranges of antigen density were achieved: 100-200 response units (RU) for detailed kinetic studies and 500-600 RU for screening assays. The chip was blocked with ethanolamine. […] HBS-EP buffer (0.01M HEPES, pH 7.4, 0.15 NaCl, 3 mM EDTA, 0.005% Surfactant […]) was used as running buffer for all the BIAcore assays.
Serial dilutions (0.1-10× estimated KD) of purified Fab samples were injected for 1 min at 100 μL/min and dissociation times of up to 2 h were allowed. The concentrations of the Fab proteins were determined by ELISA and/or SDS-PAGE electrophoresis using as a standard a Fab of known concentration (as determined by amino acid analysis). Kinetic association rates (kon) and dissociation rates (koff) were obtained simultaneously by fitting the data to a 1:1 Langmuir binding model (Karlsson, R. Roos, H. Fagerstam, L. Petersson, B. (1994). Methods Enzymology 6. 99-110) using the BIAevaluation program. Equilibrium dissociation constant (KD) values were calculated as koff/kon.
The binding affinities to human NGF of Fabs E3 and 3C were measured using BIAcore analysis according to the manufacturer's instructions and as described above, except that 100 RU NGF was used on chip to prevent a rebinding effect. Briefly, several concentrations of antibodies (Fabs) were injected for 2 minutes onto a CM5 chip with 100 RU of immobilized human NGF on it, and permitted to dissociate for 1800 seconds. Mouse antibody 911 (Fab) was analyzed as a control. Data was analyzed using BIAevaluation software following the manufacturer's instructions. E3 bound human NGF with a KD of approximately 0.07 nM (and with a kon of about 6.0e5 M-1s-1, and a koff of about 4.2e-5s-1).
A general note: In SPR one partner is held on a chip, and binding of the other changes the refractive index at the surface.

The target of assay [2] is T1, human NGF. Kind of assay: BIAcore screening assay of Fab library clones (koff). The note with it: Table 8: CDR L3 H3 combination mutations, H19-L129 template (H1H2L1L2 matured). The assay is classed as binding. In a few lines:
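Fab library clones expressed in E. coli (1 mM IPTG, 5 h, 30° C), lysed by freeze-thaw in HBS-EP; lysates injected at 50 μl/min for 2 min over CM5-immobilised human NGF (500-600 RU). Single-exponential koff fitted from 10-15 min dissociation; Fab presence checked via anti-penta-His channel.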

T1 sequence (P01138 122-241): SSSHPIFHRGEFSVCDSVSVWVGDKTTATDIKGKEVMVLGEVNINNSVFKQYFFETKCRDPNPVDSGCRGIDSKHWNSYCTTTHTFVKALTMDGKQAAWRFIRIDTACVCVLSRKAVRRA

B1: E3: humanized, affinity matured anti-NGF antagonist antibody; variable regions SEQ ID NO:1 and 2; human IgG2a (A330P331 to S330S331), kappa (antibody, V domains shown)
VH: QVQLQESGPGLVKPSETLSLTCTVSGFSLIGYDLNWIRQPPGKGLEWIGIIWGDGTTDYNSAVKSRVTISKDTSKNQFSLKLSSVTAADTAVYYCARGGYWYATSYYFDYWGQGTLVTVS
VL: DIQMTQSPSSLSASVGDRVTITCRASQSISNNLNWYQQKPGKAPKLLIYYTSRFHSGVPSRFSGSGSGTDFTFTISSLQPEDIATYYCQQEHTLPYTFGQGTKLEIKRT
modifications: human IgG2a constant (A330S/P331S) and kappa constant missing
Broadly, the koff is the first-order rate constant of dissociation. For B1, the “binding affinity to human NGF relative to parent mouse antibody 911” value in the assay with human NGF [1] is listed as “approximately 50 fold”. Further, the koff with human NGF [2] came to 1.2e-05 s⁻¹.

(Values after patent US20080182978A1, “ANTI-NGF ANTIBODIES AND METHODS USING SAME” (RINAT NEUROSCIENCE CORP, priority 2002, published 2008).)
